# Data published in the nanobody polyreactivity screen of Harvey et al. (2022).
# Assay: yeast display, Sf9 membrane polyspecificity reagent, FACS + sequencing; frameworks hold sequencing errors
# How it was run: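 A nanobody's polyreactivity label depends on the gate it was sorted from. Yeast display cells were stained with 10% biotinylated, detergent-solubilized Sf9 membrane reagent for 1 hour at 4 °C, enriched on streptavidin microbeads and sorted by FACS. The low and high (top ~1%) gates were set on anti-HA fluorescence for expression and streptavidin fluorescence for reagent binding.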
row,Sequence,polyreactivity (PSR sort gate)
1,QVQLVESGGGLDQAGGSLRLSCAASGITFLDNDMGWYRQAPGKERELVAAINSGVSTYYADSVKGRFTISLDNAKNTVYLQMNSLKPEDTAVYYCAADRPDVAGDYWGQGTQVTVSS,low polyreactivity
2,QVQLVESGGGLDQAGGSLRLSCAASGITFPGYAMGWYRQAPGKERELVAAIDWSGDGTYYADSVKGRFTISRDNAKNTVYLQMNSLKPEDTAVYYCAKDNYPNHSTVLAVIYDYWGQGTQVTVSS,low polyreactivity
3,QVQLVESGGGLDQAGGSLRLSCAASGITFYDYAMGWYRQAPGKEREFVASITSSGGSTYYADSVKGRFTISRDNAKTTVYLQMNSLKPQDPAVYYCAARGYNPYGRKVGYWGQGTQVTVSS,high polyreactivity
4,QVQLVESGGGLDQAGGSLRLSCAASGLIFIQNAMGWYRQAPGKEREFVAAISVSGRTYYADSVKGRFTISRDNAKNTVYLQMNSLKPEDTAVYYCAARSRSWRQRYGDFDYWGQGTQVTVSS,low polyreactivity
5,QVQLVESGGGLDQAGGSLRLSCAASGLIFSQYTMGWYRQAPGKERELVASITWRGGSTYADSVKGRFTISRDNAKNTVYLQMNSLKPEDTAVYYCAADYKPSYYLRQSYGYWGQGTQVTVSS,low polyreactivity
6,QVQLVESGGGLDQAGGSLRLSCAASGLTFWYYAMGWYRQAPGKERELVVAISWSGGRTSYADSVKGRFTISRDNAKNTVYLQMNSLKPEDTAVYYCAADKDFRTGEYEYDYWGQGTQVTVSS,high polyreactivity
7,QVQLVESGGGLDQAGGSLRLSCAASGLTFYSYAMGWYRQAPGKERELVAAISSSGGNTYYADSVKGRFTISRDNAKNTVYLQMNSLKPEDTAVYYCAARYTAYIQYGMGYWGQGTQVTVSS,high polyreactivity
8,QVQLVESGGGLDQAGGSLRLSCAASGNIFYRYAMGWYRQAPWKERELVAAISGNSGNTYYADSVKGRFTISRDNAKNTVYLQMNSLKPEDTAVYYCAAERRAFGHYSWGQGTQVTVSS,high polyreactivity
9,QVQLVESGGGLDQAGGSLRLSCAASGRIFDSNAMGWYRQAPGKERELVAAISYDGGSTYYADSVKGRFTISRDNAKNTVYLQMNSLKPEDTAVYYCAGDDGWYYYYGYDYWGQGTQVTVSS,low polyreactivity
10,QVQLVESGGGLDQAGGSLRLSCAASGRIFGYYVMGWYRQAPGKEREFVAAISRSGGSTYYADSVKGRFTISRDNAKTTVYLQMNSLKPEDTAVYYCAKRVSTYGFSGYDYWGQGTQVTVSS,high polyreactivity
11,QVQLVESGGGLDQAGGSLRLSCAASGRIFLVYVMGWYRQAPGKERELVAAISASDGSTYYADSVKGRFTISRDNANNTVYLQMNSLKPEDTAVDYCAEWGYSLDSNSYRELNYWGQGTQVNVSS,low polyreactivity
12,QVQLVESGGGLDQAGGSLRLSCAASGRIFSRYTMGWYRQAPGKERELVAAISSGGGSNYADSVKGRFTISRDNAKNSVYLQMTSLNPEDTEVYYCNARSWLSRGYGYWGQGTQVTVSS,high polyreactivity
13,QVQLVESGGGLDQAGGSLRLSCAASGRIIYWYAMGWFRQAPGKERELVAAINNGGGTNYADSVKGRFTISRDNAKHTVYLQMNSLKPEDTAVYYCAADYVFYSRFFTEVYWGQGTQVTVSS,low polyreactivity
14,QVQLVESGGGLDQAGGSLRLSCAASGRILGYNALGWYRQAPGKERELVAAIRTGTTNYADSVKGRFTISRDNAKNTVYLQMNSLKPEDTAVYYCAALRPYNEGSSHLFRYDYWGQGTQVTVSS,low polyreactivity
15,QVQLVESGGGLDQAGGSLRLSCAASGRIVVGYAMGWYRQAPGKERELVAAINRSGSSTYYADSVKGRFTISRDNGKITVYLQMNSLKPEDTAVYYCNARSGNRYGPRYDYWGQGTQVTVSS,high polyreactivity
16,QVQLVESGGGLDQAGGSLRLSCAASGRTFFYNAMGWYRQAPGKESEWDAAISYSGGSTYYADSVKGRFTISRDNAKNTVYLQMNSLKPEDTAVYYCAARDKTRSVRRTGMDYWGQGTQVTVSS,high polyreactivity
17,QVQLVESGGGLDQAGGSLRLSCAASGRTFGWYAMGWYRQAPGTERELVAVISSSGGRTYYADSVKGRFTISRDNAKNTVYLQLNSLKPEDTAVYYCATPNGSKRYSYYYWGQGTQVTVSS,high polyreactivity
18,QVQLVESGGGLDQAGGSLRLSCAASGRTFRNYVMGWYRQAPGKERELVAAISRSGGSTYYADSVKGRFTISRDNAKNSVYLQMNSLKPEDTAVYYCNTVTTYDVEYWGQGTQVTVSS,high polyreactivity
19,QVQLVESGGGLDQAGGSLRLSCAASGRTFSWYAMGWYRQAPGKERELVAAITYSGGNTYYAHSVKGRFTISRDNAKITVYLLRNSLKPDDNAVYYCAAPSLIAKYEYWGQGTQVTVSS,high polyreactivity
20,QVQLVESGGGLDQAGGSLRLSCAASGSIFAYAMPLYRQAPGKERELVASISTSTDITYADSVKGRFTISRDNAMNSVYFLMNSLKPEDTAVYYCAATYWQWWGWYDYWGEGTQVTVSS,high polyreactivity
21,QVQLVESGGGLDQAGGSLRLSCAASGSIFGNNAMGWYRQAPGKERELVASISSSSGSTNYADSVKGRFTISRDNAKNTVYVQMNSLKPEDTAVYYCAARWRYWSRKYDYWGQGTQVTVSS,high polyreactivity

row,Sequence,polyreactivity (PSR sort gate)
1,QVQLVESGGGLDQAGGSLRLSCAASGSIFSTYAMGWYRQAPGKERELVAAISRNGGSTSYADSVKGRFTISRDNAKNTVYLQMNILKPEDTAVYYCNAGVYWPGEFDYWGQGTQVTVSS,high polyreactivity
2,QVQLVESGGGLDQAGGSLRLSCAASGSIFTQYAMGWYRQAPGKERELVAAITSGGSTYADSVKGRFTISRDNAKNTVYLQMNSLKPEDTAVYYCATPYSYRGVTFNYWGQGTLVTVSS,low polyreactivity
3,QVQLVESGGGLDQAGGSLRLSCAASGSIFWSYDRGWYRQAPGKETELVATITSGDSTYYADSVKGRFTISRDNEKNTVYLPMKSLKPEDTAVYYCAAGTFYRPTYCHREYDYWGQGTQVTVSS,low polyreactivity
4,QVQLVESGGGLDQAGGSLRLSCAASGSIFWYNTMGWYRQAPGKERELVAAITFSGGSTYYADSVKGRFTISRDNAKNTVYLQMNSLKPEDTAVYYCAAVFYSAVGYFYWGQGTQVTVSS,low polyreactivity
5,QVQLVESGGGLDQAGGSLRLSCAASGSISAIYTMGWYRQAPGKERELVAAISSGDSTNYADSVKGRFTISRDNAKNTVYLQMNSLKPEDTAVYYCATERSHLATGQGYYYVQTFYYWGQGTEVTVSS,low polyreactivity
6,QVQLVESGGGLDQAGGSLRLSCAASGSIYWNNAMGWYRQAPRKERELDAAISKSGTRTYYADSVKGRFTISRDNAKNTVYLQMNSLKPEDTAVYYCNALLSDSGTYAGDDYWGQGTQVTVSS,high polyreactivity
7,QVQLVESGGGLDQAGGSLRLSCAASGSTFFKYAMGWYRQAPAKERELVAAISQNGGSTYYADSVKGRFTISRDNAKNTVYFQMNSLNPEDTAVYYCATGPNSYDYWGQGNQVTVSS,high polyreactivity
8,QVQLVESGGGLDQAGGSLRLSCAASGSTFTRNAMRWYRQAPGKERELVATISSGGSTNYADSVKGRFTISRDNAKNTVYLQMNSLKPEDTAVYYCAKRSLYSYYYWGQGTQVTVSS,high polyreactivity
9,QVQLVESGGGLDQAGGSLRLSCAASGSTFYYNAMGWYRQAPGKERELVAAISSDGSTNYADSVKGRFTISRDNAKNTVYLQMNSLKPEDTAVYYCAKKDFYFAPSPGYYRSRDYWGQGTQVTVSS,low polyreactivity
10,QVQLVESGGGLDQAGGSLRLSCAASGTTFRNNAMGWYRQAPGKERELVAVITGDGGSTYYADSVKGRFTISRDNAKNTVYLEMNSLKPEDTAVYYCNARSIRYSRFRQRFGYWGQGTQVTVSS,low polyreactivity
11,QVQLVESGGGLDQAGGSLRLSCAASGVNAMGWYRQAPGKEREFVAAITSIGGSTYYADSVKGRFTISRDNAKNTVYLQMNRLKPEDTAVYYCNPDSGPVKVSPLYESWGQGTQVTVSS,low polyreactivity
12,QVQLVESGGGLDQAGGSLRLSCAASRSTFPHYAMGWYRQAPGKERELVAAIYSTGGSTYYADSVKGRFTISRDNAKNTVYLQMNSLKPEDTAVYYCAASRLYWGQGNQVTVSS,high polyreactivity
13,QVQLVESGGGLDQAGGSLRLSCAGSGSIFTSYAMGWDIQAPGKERELVAAISQSGGDTYYADSVKGRFTISRDNAKNTVYLQMNSLKPEDTAVYYCAASVWYYPMDYWGQGTQVTVSS,low polyreactivity
14,QVQLVESGGGLDQAGGSLRLSGAASGRILWYNAMGWYRQAPGKERELVAAISWTGGSTYYADSVKGRFTISRDNAKNTVYLQMNSLKPEDTAVYYCNVDTPYTQGFDQRQGYTFDYWGQGTQVTVSS,low polyreactivity
15,QVQLVESGGGLDQAGGSLRLSGAASGSIFDNAMGWYSQAPGKERELVAAITSGGITNYADSVKGRFTISRDNAKNTVYLQMNSLKPEDTAVYYCNTLSPTQTKYDYWGQGTQVTVSS,low polyreactivity
16,QVQLVESGGGLDQAGGSLRLSSAASGRTFYYYAMGWYRKAPGKERELVAAITRSGGSTYYADSVKGRFTISRDNAKNTFYLQMNSLKPEDTAVYYCAVQVRPNSGGTRIHRGGYDYWGQGTQVTVSS,low polyreactivity
17,QVQLVESGGGLDQAGGSLRLSWAASGFTFVPYAMGWYRQAPGKERNLVARITGGGGNTYYADSVKGRFTISRDNAKNTVYLQMISLKPEDTAVYYCAADYTNWKTCSNEMYYWGQGTQVTVSS,low polyreactivity
18,QVQLVESGGGLDQAGGSLRLSWAASGGIFIYNAMGWYRQPPGKEREVVAAINISGGNTYYADSVKGRFTISRDNAKNTVYLQMNSLKPEDTAVYYCAARYASSWWIRYYFWGQGTQVTVSS,high polyreactivity
19,QVQLVESGGGLDQAGGSLRLTCAASGFTFTIYAMGWYRQAPGKERELVATISGRAGRTYYADSVMGRFTISRDNAKNTVSLQMTSLKPEDTAVYYCNAGQWRYPGLYYYWGQGTQVNVSS,high polyreactivity
20,QVQLVESGGGLDQAGGSLRLTCAASGNTFRSYAMGWSRQAPGKEREFVAAISLSGGNTYYADSVKGRFTISRDNAKNTVYVQMNSLKPEDTAVYYCAADYEYSGYGYWGQGTQVTVSS,high polyreactivity
